According to PMC10397247:
Each block holds one binder with its values, some of them ahead of it.

Columns and labels:
Assay in all cases: two-hybrid library CCNG1;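 also: natural log of median RNA to DNA barcode read ratio; higher means stronger binding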
4H949-bN = biological target: T1, 4H949-bN
T1 chain: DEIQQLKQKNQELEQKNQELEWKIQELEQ

4H2518-bN = biological target: T2, 4H2518-bN
T2 chain: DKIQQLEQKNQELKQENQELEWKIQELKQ

4H2760-bN = biological target: T3, 4H2760-bN
T3 chain: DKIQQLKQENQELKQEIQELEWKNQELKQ

4H2444-bN = biological target: T4, 4H2444-bN
T4 chain: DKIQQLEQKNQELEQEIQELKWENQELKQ

4H730-bN = biological target: T5, 4H730-bN
T5 chain: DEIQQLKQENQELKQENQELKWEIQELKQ

4H932-bN = biological target: T6, 4H932-bN
T6 chain: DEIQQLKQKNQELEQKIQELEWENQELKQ

4H264-bN = biological target: T7, 4H264-bN
T7 chain: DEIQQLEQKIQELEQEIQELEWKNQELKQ

4H3364-bN = biological target: T8, 4H3364-bN
T8 chain: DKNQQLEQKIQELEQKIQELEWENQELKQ

4H3381-bN = biological target: T9, 4H3381-bN
T9 chain: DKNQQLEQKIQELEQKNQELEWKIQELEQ

4H2585-bN = biological target: T10, 4H2585-bN
T10 chain: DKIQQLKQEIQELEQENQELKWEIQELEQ

4H3041-bN = biological target: T11, 4H3041-bN
T11 chain: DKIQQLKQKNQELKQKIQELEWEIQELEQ

4H56-bN = biological target: T12, 4H56-bN
T12 chain: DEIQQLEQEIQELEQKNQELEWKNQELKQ

4H3297-bN = biological target: T13, 4H3297-bN
T13 chain: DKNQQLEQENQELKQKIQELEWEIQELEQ

4H2859-bN = biological target: T14, 4H2859-bN
T14 chain: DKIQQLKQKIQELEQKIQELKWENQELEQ

4H349-bN = biological target: T15, 4H349-bN
T15 chain: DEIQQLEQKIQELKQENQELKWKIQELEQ

4H2931-bN = biological target: T16, 4H2931-bN
T16 chain: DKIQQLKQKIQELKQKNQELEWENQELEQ

4H796-bN = biological target: T17, 4H796-bN
T17 chain: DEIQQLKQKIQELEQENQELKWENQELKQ

P5A-bN = biological target: T18, P5A-bN
T18 chain: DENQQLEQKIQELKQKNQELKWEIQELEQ

P9A-bN = biological target: T19, P9A-bN
T19 chain: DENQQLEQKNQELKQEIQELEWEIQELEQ

P4A-bN = biological target: T20, P4A-bN
T20 chain: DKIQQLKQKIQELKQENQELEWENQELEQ

P7A-bN = biological target: T21, P7A-bN
T21 chain: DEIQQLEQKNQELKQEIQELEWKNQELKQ

P6A-bN = biological target: T22, P6A-bN
T22 chain: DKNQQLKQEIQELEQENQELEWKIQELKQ

P8A-bN = biological target: T23, P8A-bN
T23 chain: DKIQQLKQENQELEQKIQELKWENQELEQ

P3A-bN = biological target: T24, P3A-bN
T24 chain: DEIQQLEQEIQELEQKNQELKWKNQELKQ

P5A = biological target: T25, P5A
T25 chain: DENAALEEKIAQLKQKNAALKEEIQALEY

P9SHb = biological target: T26, P9SHb
T26 chain: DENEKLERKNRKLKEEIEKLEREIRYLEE

P6SHb = biological target: T27, P6SHb
T27 chain: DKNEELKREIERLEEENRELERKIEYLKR

P5SHb = biological target: T28, P5SHb
T28 chain: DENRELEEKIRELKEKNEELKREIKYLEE

P4SHb = biological target: T29, P4SHb
T29 chain: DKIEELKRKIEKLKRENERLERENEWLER

P8SHb = biological target: T30, P8SHb
T30 chain: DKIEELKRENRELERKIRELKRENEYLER

P7SHb = biological target: T31, P7SHb
T31 chain: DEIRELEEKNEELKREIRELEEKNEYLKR

P5A-bS = biological target: T32, P5A-bS
T32 chain: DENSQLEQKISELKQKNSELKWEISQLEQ

P9A-bS = biological target: T33, P9A-bS
T33 chain: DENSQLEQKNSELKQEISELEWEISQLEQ

P4A-bS = biological target: T34, P4A-bS
T34 chain: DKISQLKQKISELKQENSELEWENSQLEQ

P3A-bS = biological target: T35, P3A-bS
T35 chain: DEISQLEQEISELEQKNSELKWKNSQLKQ

P8A-bS = biological target: T36, P8A-bS
T36 chain: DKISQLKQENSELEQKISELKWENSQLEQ

P7A-bS = biological target: T37, P7A-bS
T37 chain: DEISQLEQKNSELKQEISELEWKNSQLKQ

4H235-bN = biological target: T38, 4H235-bN
T38 chain: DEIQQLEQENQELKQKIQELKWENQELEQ

Binder: DEIQQLEQEIQELEQKNQELKWKNQELKQ [P3A-bN]
- interaction score (P5A-bN): -1.91
- interaction score (P9A-bN): 0.0484
- interaction score (P4A-bN): 1.79
- interaction score (P7A-bN): 0.502
- interaction score (P6A-bN): 0.0905
- interaction score (P8A-bN): -0.0492
- interaction score (P3A-bN): -0.693

Binder: DKIQQLKQKNQELKQKNQELKWKIQELKQ [P2A-bN]
- interaction score (P5A-bN): -0.834
- interaction score (P9A-bN): -0.223
- interaction score (P4A-bN): -0.0603
- interaction score (P5A): -1.29
- interaction score (P7A-bN): -2.31
- interaction score (P6A-bN): -0.329
- interaction score (P8A-bN): -0.172
- interaction score (P3A-bN): -1.27

Binder: DEISQLEQEISELEQKNSELKWKNSQLKQ [P3A-bS]
- interaction score (P5A-bS): -0.938
- interaction score (P9A-bS): 0.297
- interaction score (P4A-bS): 1.45
- interaction score (P3A-bS): -1.29
- interaction score (P8A-bS): -0.303
- interaction score (P7A-bS): -0.377

Binder: DEIQQLEQENQELEQENQELEWEIQELEQ [P1A-bN]
- interaction score (P5A-bN): -0.827
- interaction score (P9A-bN): -2.46
- interaction score (P4A-bN): -0.418
- interaction score (P7A-bN): -1.2
- interaction score (P6A-bN): -0.545
- interaction score (P8A-bN): -0.492
- interaction score (P3A-bN): -1.29

Now from value to binder:

- interaction score (4H949-bN): -0.477
- interaction score (4H2518-bN): -0.0731
- interaction score (4H2760-bN): -0.126
- interaction score (4H2444-bN): 1.34
- interaction score (4H730-bN): -0.506
- interaction score (4H932-bN): 0.018
- interaction score (4H264-bN): 0.471
- interaction score (4H3364-bN): -0.17
- interaction score (4H3381-bN): 0.0258
- interaction score (4H2585-bN): -0.578
- interaction score (4H3041-bN): 0.447
- interaction score (4H56-bN): 0.273
- interaction score (4H3297-bN): -0.0483
- interaction score (4H2859-bN): 0.194
- interaction score (4H349-bN): -0.375
- interaction score (4H2931-bN): -0.103
- interaction score (4H796-bN): -0.0985
Binder: DKIQQLEQKNQELEQEIQELKWENQELKQ [4H2444-bN]

- interaction score (P5A-bN): -1.81
- interaction score (P9A-bN): -1.14
- interaction score (P7A-bN): -1.53
- interaction score (P6A-bN): 1.62
- interaction score (P8A-bN): -0.311
Binder: DENQQLEQKIQELKQKNQELKWEIQELEQ [P5A-bN]

- interaction score (P9SHb): 0.746
- interaction score (P6SHb): 0.8
- interaction score (P5SHb): -0.773
- interaction score (P4SHb): -0.574
- interaction score (P8SHb): -1.17
- interaction score (P7SHb): -1.05
Binder: DKIEELKRKIEKLKRENERLERENEWLER [P4SHb]

- interaction score (4H949-bN): -0.438
- interaction score (4H2518-bN): -0.299
- interaction score (4H235-bN): 0.562
- interaction score (4H2760-bN): 2.03
- interaction score (4H2444-bN): -0.884
- interaction score (4H730-bN): -1.94
- interaction score (4H932-bN): -0.682
- interaction score (4H264-bN): -0.206
- interaction score (4H3364-bN): 0.709
- interaction score (4H3381-bN): -1.48
- interaction score (4H2585-bN): -0.77
- interaction score (4H3041-bN): -0.319
- interaction score (4H56-bN): -0.626
- interaction score (4H3297-bN): -0.527
- interaction score (4H2859-bN): 0.00948
- interaction score (4H349-bN): -0.0107
- interaction score (4H2931-bN): -1.14
- interaction score (4H796-bN): -0.458
Binder: DEIQQLEQENQELKQKIQELKWENQELEQ [4H235-bN]

- interaction score (P9SHb): -0.0948
- interaction score (P6SHb): 1.24
- interaction score (P5SHb): -0.373
- interaction score (P8SHb): 0.218
- interaction score (P7SHb): -0.193
Binder: DENRELEEKIRELKEKNEELKREIKYLEE [P5SHb]
